Test results as given in paper PMC6202311.

Assays:
[1] = test system: RNase E NTD 8x mutant (Escherichia coli); test: BLI; settings: 5' monophosphate; 3' U-biotin ligated; BLI: 25 mM HEPES pH 7.0, 150 mM NaCl, 100 mM KCl, 10 mM CaCl2, 0.5 mM TCEP; RNA immobilised on streptavidin sensors, protein 0-500 nM; temperature not stated
[2] = test system: RNase E NTD WT (Escherichia coli); test: BLI; settings: 3' U-biotin ligated, BLI: 25 mM HEPES pH 7.0, 150 mM NaCl, 100 mM KCl, 10 mM CaCl2, 0.5 mM TCEP, RNA immobilised on streptavidin sensors, protein 0-500 nM, temperature not stated

**Q.** For RprA 5'-monophosphate, which Kd [1] is on record?
**A.** 47 nM

**Q.** And the Kd ([2]; 5' monophosphate)?
**A.** 15.6 nM

**Q.** For RprA 5'-triphosphate, which Kd ([2]; 5' triphosphate) is on record?
**A.** 8.6 nM
